Results as given in US10646622B2, “Biologically active implants” (priority 1998, dated 2020).

Test system: fracture of the right tibia
Format: in vivo, Sprague Dawley rats
Protocol: In an experiment with animals, tests were conducted on 60 such animals (5-months-old female Sprague Dawley rats). All test animals were subjected to a standardized fracture of the right tibia. Differently coated titanium wires (1.0 mm in diameter) were then implanted in the repositioned tibiae as intramedullary supports.
Depending on the group assignments as specified below 2 mg/kg of a rat-specific recombinant growth hormone (r-rGH) or a placebo was subcutaneously injected daily for a period of time up to 42 days. At various time points (0 d, 4 d, 7 d, 14 d, 21 d, 28 d, 35 d, and 42 d) and after administration of an anaesthetic inhalant, x-rays were taken in two planes, 1.25 ml of blood was taken from each by the retrobulbar method (deep-frozen at −80° C. (−112° F.)), and their weight and body temperature were measured. On day 42, the fractured and the unfractured tibiae, along with the periosteum, were separately prepared and subjected to biomechanical tests (torsional load-torsional stiffness).
Group Assignments • Group I: Fracture of the right tibia—uncoated implant— • Systemic application of a placebo (control group) • Group II: Fracture of the right tibia—implant coated with poly-D,L-lactide 203— • Systemic application of a placebo • Group III: Fracture of the right tibia—implant coated with poly-D,L-lactide— • Systemic application of (r-rGH) • Group IV: Fracture of the right tibia—implant coated with poly-D,L-lactide and growth factors IGF-I (5%) and TGF-β (1%)— • Systemic application of a placebo • Group V: Fracture of the right tibia—implant coated with poly-D,L-lactide and growth factors IGF-I (5%) and TGF-β (1%)— • Systemic application of (r-rGH)
The coated implants were produced as indicated in Example 1.

Row | Molecule | differences in weight and temperature among placebo groups I, II and IV (rat, in vivo) | body weight increase (2 mg/kg s.c. daily, compared to placebo, p<0.05) [%] | maximum torsional load (day 42, systemic 2 mg/kg s.c. daily with implant coated with poly-D,L-lactide (Group III), p<0.05)
1 | poly(D,L) lactide [PDLLA] | No major differences |  | 
2 | r-rGH: rat-specific recombinant growth hormone, subcutaneously injected (protein, UniProt P01244 27-216, looked up) Somatotropin: FPAMPLSSLFANAVLRAQHLHQLAADTYKEFERAYIPEGQRYSIQNAQAAFCFSETIPAPTGKEEAQQRTDMELLRFSLLLIQSWLGPVQFLSRIFTNSLMFGTSDRVYEKLKDLEEGIQALMQELEDGSPRIGQILKQTYDKFDANMRSDDALLKNYGLLSCFKKDLHKAETYLRVMKCRRFAESSCAF |  | 13 | significant increase
